Substrate in data set [1]: C[C@H](CCC(=O)NCCS(=O)(=O)O)[C@H]1CC[C@H]2[C@@H]3[C@H](O)C[C@@H]4C[C@@H](Nc5ccc([N+](=O)[O-])c6nonc56)CC[C@]4(C)[C@H]3C[C@H](O)[C@]12C
Put plainly: sodium-dependent fluorescent uptake kinetics (Km) in mNtcp-HEK cells. Type of data set: cell-based, Mus musculus. Conditions: Na+.

Substrate in data set [2]: C[C@H](CCC(=O)NCCS(=O)(=O)O)[C@H]1CC[C@H]2[C@@H]3[C@H](O)C[C@@H]4C[C@@H](Nc5ccc([N+](=O)[O-])c6nonc56)CC[C@]4(C)[C@H]3C[C@H](O)[C@]12C
Put plainly: sodium-dependent fluorescent uptake kinetics (Km) in mAsbt-HEK cells. Type of data set: cell-based, Mus musculus. Conditions: Na+.

Data on two proteins can be found in paper PMC11579514, “Validation of NBD-coupled taurocholic acid for intravital analysis of bile acid transport in liver and kidney of mice” (EXCLI Journal, 2024).

For orientation: Km means the substrate concentration at which the rate is half of its maximum.

B1: mNtcp (mouse Na+/taurocholate co-transporting polypeptide) (Mus musculus) (protein)
chain: MEAHNVSAPFNFSLPPGFGHRATDTALSVILVVMLLLIMLSLGCTMEFSKIKAHFWKPKGVIIAIVAQYGIMPLSAFLLGKVFHLTSIEALAILICGCSPGGNLSNLFTLAMKGDMNLSIVMTTCSSFTALGMMPLLLYIYSKGIYDGDLKDKVPYKGIMLSLVMVLIPCAIGIFLKSKRPHYVPYVLKAGMIITFSLSVAVTVLSVINVGNSIMFVMTPHLLATSSLMPFTGFLMGYILSALFRLNPSCRRTISMETGFQNVQLCSTILNVTFPPEVIGPLFFFPLLYMIFQLAEGLLFIIIFRCYLKIKPQKDQTKITYKAAATEDATPAALEKGTHNGNNPPTQPGLSPNGLNSGQMAN
notes: full open reading frame with C-terminal FLAG, stably expressed in HEK293
Take B1: in data set [1], the Km turned out to be 23.3 µM.

B2: mAsbt (mouse apical sodium-dependent bile acid transporter) (Mus musculus) (protein)
chain: MDNSSVCPPNATVCEGDSCVVPESNFNAILNTVMSTVLTILLAMVMFSMGCNVEVHKFLGHIKRPWGIFVGFLCQFGIMPLTGFILSVASGILPVQAVVVLIMGCCPGGTGSNILAYWIDGDMDLSVSMTTCSTLLALGMMPLCLFVYTKMWVDSGTIVIPYDSIGISLVALVIPVSFGMFVNHKWPQKAKIILKIGSITGVILIVLIAVIGGILYQSAWIIEPKLWIIGTIFPIAGYSLGFFLARLAGQPWYRCRTVALETGMQNTQLCSTIVQLSFSPEDLNLVFTFPLIYTVFQLVFAAVILGIYVTYRKCYGKNDAEFLEKTDNEMDSRPSFDETNKGFQPDEK
notes: as for B1
Take B2: the Michaelis constant (Km) in data set [2] is recorded as 19.1 µM.
